Data published in patent US20040127421A1 (KIMBERLY CLARK WORLDWIDE, published 2004).

T1: MMP-7 (UniProt P09237 95-267, limits assumed)
T1 construct: also called matrix metalloproteinase-7
T1 sequence (looked up): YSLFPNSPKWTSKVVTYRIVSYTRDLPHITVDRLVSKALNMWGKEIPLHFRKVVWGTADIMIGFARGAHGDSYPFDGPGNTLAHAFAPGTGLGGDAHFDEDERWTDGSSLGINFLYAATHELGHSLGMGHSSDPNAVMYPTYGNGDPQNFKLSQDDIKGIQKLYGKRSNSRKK

T2: MMP-2 (Homo sapiens (Human), UniProt P08253 110-660)
T2 construct: an active enzyme without signal and propeptide is likely; also called matrix metalloproteinase-2
T2 sequence: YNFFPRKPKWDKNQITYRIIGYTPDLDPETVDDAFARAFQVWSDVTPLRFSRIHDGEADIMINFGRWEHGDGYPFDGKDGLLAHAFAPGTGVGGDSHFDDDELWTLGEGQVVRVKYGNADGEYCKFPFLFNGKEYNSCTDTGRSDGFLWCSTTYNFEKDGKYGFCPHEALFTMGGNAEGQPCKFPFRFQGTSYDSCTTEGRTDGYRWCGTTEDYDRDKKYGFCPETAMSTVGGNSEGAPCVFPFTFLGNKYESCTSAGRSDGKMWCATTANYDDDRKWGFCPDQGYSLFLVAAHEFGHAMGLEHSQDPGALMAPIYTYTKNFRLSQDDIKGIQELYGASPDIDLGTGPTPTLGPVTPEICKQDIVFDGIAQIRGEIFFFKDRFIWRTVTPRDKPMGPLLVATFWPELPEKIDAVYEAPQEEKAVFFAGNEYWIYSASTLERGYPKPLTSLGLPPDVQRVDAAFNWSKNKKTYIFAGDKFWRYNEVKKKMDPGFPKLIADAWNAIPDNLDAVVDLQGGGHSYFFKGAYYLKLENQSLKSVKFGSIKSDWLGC


How the values were obtained:
Active MMP-9 enzyme [1] = target: T3, Active MMP-9 enzyme (UniProt P14780 107-707, limits assumed); experiment: enzyme inhibition, fluoresceinated collagen substrate, Dixon plot
T3 construct: mature; also called matrix metalloproteinase-9; mature MMP-9
T3 sequence (P14780 107-707 limits assumed): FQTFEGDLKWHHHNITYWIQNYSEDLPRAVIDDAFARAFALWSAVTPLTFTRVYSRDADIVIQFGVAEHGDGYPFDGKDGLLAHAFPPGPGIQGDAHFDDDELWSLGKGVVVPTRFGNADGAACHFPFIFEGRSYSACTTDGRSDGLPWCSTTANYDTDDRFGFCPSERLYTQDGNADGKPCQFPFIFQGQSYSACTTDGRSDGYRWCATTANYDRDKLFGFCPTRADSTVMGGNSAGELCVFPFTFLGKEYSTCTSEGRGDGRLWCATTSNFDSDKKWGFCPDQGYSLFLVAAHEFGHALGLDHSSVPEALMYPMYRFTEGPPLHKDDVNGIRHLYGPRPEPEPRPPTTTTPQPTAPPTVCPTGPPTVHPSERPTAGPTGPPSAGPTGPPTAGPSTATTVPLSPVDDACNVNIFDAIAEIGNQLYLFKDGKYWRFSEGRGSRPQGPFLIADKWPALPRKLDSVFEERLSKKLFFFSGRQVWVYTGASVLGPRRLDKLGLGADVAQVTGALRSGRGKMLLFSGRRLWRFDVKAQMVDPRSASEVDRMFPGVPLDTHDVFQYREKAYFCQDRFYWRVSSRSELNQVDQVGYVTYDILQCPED
Procedure: Two enzymatic assays were performed. The first assay measured the enzymatic hydrolysis of fluoresceinated collagen by MMP-9 as a function of time. […] The protein mixture was added to the collagen substrate, and was quickly mixed. Fluorescence emission intensity at 520 nm was measured as a function of time (excitation wavelength 495 nm) in a Shimadzu RF5301 fluorometer (Lakowicz, 1983). The fluorescein release assay was used to determine the inhibitory constant (Ki) of the peptide inhibitor ([I]) according to Segel (1993) via the use of Dixon plots (1/v vs. [I]), such that: […]

Active MMP-9 enzyme [2] = target: T3, Active MMP-9 enzyme; experiment: enzyme inhibition, FRET peptide substrate
Procedure: (§1) The second assay utilized the technique of fluorescence resonance energy transfer (FRET). The substrate peptide (Calbiochem) of seven amino acids was coupled to a carboxyl terminal dinitrophenyl acceptor, and an amino terminal 2-aminobenzo-anthraniloyl (Abz) moiety donor. […] The protein mixture was added to the fluorescent peptide substrate, and was quickly mixed. Fluorescence intensity as a function of time was measured with a Dynex MFX fluorescence microtiter plate reader. Fluorescence intensity was related back to moles of peptide cleaved by producing a standard curve with an Abz containing non-FRET peptide.
(§2) These assays utilized FRET peptides that incorporated specific MMP cleavage sites into their sequence.

MMP-3 = target: T4, MMP-3 (UniProt P08254 100-477, limits assumed); experiment: enzyme inhibition, FRET peptide substrate
T4 construct: also called matrix metalloproteinase-3
T4 sequence (P08254 100-477 limits assumed): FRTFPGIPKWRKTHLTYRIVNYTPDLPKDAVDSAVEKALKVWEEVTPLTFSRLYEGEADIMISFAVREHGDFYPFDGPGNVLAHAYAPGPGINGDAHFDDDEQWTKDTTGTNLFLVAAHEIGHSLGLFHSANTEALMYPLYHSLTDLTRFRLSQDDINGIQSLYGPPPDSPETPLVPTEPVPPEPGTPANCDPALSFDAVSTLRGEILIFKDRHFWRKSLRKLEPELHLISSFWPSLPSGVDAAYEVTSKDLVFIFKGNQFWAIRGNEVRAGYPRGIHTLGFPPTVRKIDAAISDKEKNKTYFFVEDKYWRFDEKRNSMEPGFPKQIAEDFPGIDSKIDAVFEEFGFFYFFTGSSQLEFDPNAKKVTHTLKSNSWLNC
Procedure: as §1, §2

MMP-7 = target: T1, MMP-7; experiment: enzyme inhibition, FRET peptide substrate
Procedure: as §1, §2

Active MMP-9 enzyme [3] = target: T3, Active MMP-9 enzyme; experiment: SPR (BIACore-X), calculated from ka/kd
Procedure: MMP-9 at a concentration of 75 ng/μL was coupled to the activated surface at a flow rate of 10 μL per minute for ten minutes. The final surface was inactivated by flowing 1 M ethanolamine-HCl at a rate of 10 μL per minute for five minutes over the sensor surface. […] The association and dissociation phases of the binding isotherms were smoothed by an automated FFT routine prior to modeling rate constants. Binding isotherms were evaluated by simultaneously fitting the forward (kₐ) and reverse (kd) rate constants to:
There was an observed bulk transport effect of approximately 100 response units at the start of the dissociation phase that was not modeled.

MMP-2 = target: T2, MMP-2; experiment: isothermal titration calorimetry, 1 mM 19-mer into 20 µM MMP-2, 20 mM cacodylate pH 6.8, 10 mM NaCl, 25° C.
Active MMP-9 enzyme [4] = target: T3, Active MMP-9 enzyme; experiment: isothermal titration calorimetry, 1 mM peptide into 20 µM MMP-9, 20 mM cacodylate pH 6.8, 20 mM NaCl
Procedure: Isothermal titration calorimetry (ITC) was performed with a VP-ITC instrument from MicroCal, Inc. Titrations were carried out by injecting 5 μL of an inhibitor peptide solution (at concentration ranges from 0.5 mM to 2.0 mM) into the 1.4 mL stirred reaction cell. MMP-9 ranged in concentration from 50 to 80 μM in the cell. Both the inhibitor and the enzyme were in 20 mM sodium cacodylate (pH 5.5-7.0), 40 mM NaCl, or 20 mM Tris-HCl (pH 7.0-7.5), 40 mM NaCl. Titrations were conducted between 20° C. and 40° C. Typical experimental conditions for the titrations were a 10 second injection period followed by a 240 second delay between injections for a total of 40 injections. Blank titrations of inhibitor peptide into buffer were performed in order to correct for heats of dilution and mixing.
The peptide was dissolved in 20 mM cacodylate (pH 6.8), 20 mM NaCl at a final concentration of 1 mM. MMP-9 was dialyzed into the same buffer at a final concentration of 20 μM. A series of standard injections were performed as described above.

Binder | Ki (Active MMP-9 enzyme [1]) [µM] | Ki (Active MMP-9 enzyme [2]) [µM] | Ki (MMP-3) [µM] | Ki (MMP-7) [µM] | Ka (Active MMP-9 enzyme [3]) [M⁻¹] | Ka (MMP-2) [M⁻¹] | Stoichiometry (MMP-2) | ΔH (MMP-2) [kcal/mol] | ΔS (MMP-2) [cal mol^-1 K^-1] | Ka (Active MMP-9 enzyme [4]) [M⁻¹] | Stoichiometry (Active MMP-9 enzyme [4]) | ΔH (Active MMP-9 enzyme [4]) [kcal/mol] | ΔS (Active MMP-9 enzyme [4]) [cal mol^-1 K^-1]
PRCGNPDVA [9-mer (SEQ ID NO:12) PRCGNPDVA] | 186 | 233 | – | – | – | – | – | – | – | – | – | – | –
NYNFFPRKPK [10-mer (SEQ ID NO:13) NYNFFPRKPK] | 221 | 328 | – | – | – | – | – | – | – | – | – | – | –
H-PRCGNPDVANYNFFPRKPK-OH (Synthesized by Sigma-Genosys, >95% pure by RP-HPLC; Free termini; the acetylated/amidated Ac-19-mer was used only in migration assays; also called 19mer peptide) [19-mer (SEQ ID NO:11) PRCGNPDVANYNFFPRKPK] | 30.3 | 45.2 | 6.4 | 22.8 | 5.3e+06 | 2.4e+06 | 0.99 | -15.4 | -21.1 | 1.65e+06 | 0.975 | -26.1 | -11.6
